Target: transferrin receptor TfR (human) (UniProt P02786)
Experiment: cell-based or functional assay

Sequence of FAM-SV40 encapsulating FTH (P02794 whole entry): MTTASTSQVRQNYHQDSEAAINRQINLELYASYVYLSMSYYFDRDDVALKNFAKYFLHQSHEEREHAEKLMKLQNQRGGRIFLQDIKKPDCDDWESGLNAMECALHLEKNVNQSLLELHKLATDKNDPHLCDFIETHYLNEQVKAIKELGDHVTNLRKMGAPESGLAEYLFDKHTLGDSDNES

FAM-SV40 encapsulating FTH (from UniProt P02794 1-183)
concentration needed for fluorescence from 90% or more of HEK 293E cells (low TfR expression) by FACS: > 800 nM | percent of fluorescent SKBR 3 cells (high TfR expression) by FACS at 100 nM FAM-SV40 encapsulating FTH: > 90% | ratio of fluorescent cells, SKBR 3 (high TfR) against HEK 293E (low TfR), at 100 nM: 60 times
